The source of these data is US12679878B2, “CRF2 receptor agonists and their use in therapy” (SANOFI, priority 2020, dated 2026).

Starred links: 1 amine or outer side, 2 acyl side, 3 side chain; linkers in the order of their positions; H or OH if unused. Non-standard residues stand in square brackets, D forms with d. Groups on a side chain read outwards from the residue. No end group written: not given here. *: point of attachment. C18 diacid = O=C(O)CCCCCCCCCCCCCCCCC(=O)*; γGlu = O=C(O)[C@H](CCC(=O)[*:2])N[*:1]; Palmitoyl = CCCCCCCCCCCCCCCC(=O)*; AEEA = NCCOCCOCC(=O)O; Aib = CC(C)(N)C(=O)O

For the assay, the target named is human corticotropin-releasing factor 2α (CRF2 α receptor) (human), Q13324. Briefly: cell-based or functional assay.
Chain of human corticotropin-releasing factor 2α (CRF2 α receptor) (human), Q13324 (Q13324 20-411): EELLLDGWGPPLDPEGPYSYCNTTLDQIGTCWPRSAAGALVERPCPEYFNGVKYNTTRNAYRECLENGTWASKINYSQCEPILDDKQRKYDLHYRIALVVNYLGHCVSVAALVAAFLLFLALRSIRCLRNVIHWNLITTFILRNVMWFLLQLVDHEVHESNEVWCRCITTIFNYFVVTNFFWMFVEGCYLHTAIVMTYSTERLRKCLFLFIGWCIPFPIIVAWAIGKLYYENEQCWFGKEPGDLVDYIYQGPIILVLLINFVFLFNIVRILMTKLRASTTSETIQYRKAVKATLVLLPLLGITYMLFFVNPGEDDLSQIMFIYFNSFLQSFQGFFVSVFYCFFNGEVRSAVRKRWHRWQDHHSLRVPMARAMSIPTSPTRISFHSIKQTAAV

B1: SEQ ID NO: 71 (peptide)
peptide: IVLSLDVPIKLK([AEEA-AEEA-γGlu-C18 diacid])K[Aib]LLEQERQKKQREQAETN[Aib]QILAQV-NH2
modifications: N-terminus assumed
SMILES: CC[C@H](C)[C@H](N)C(=O)N[C@H](C(=O)N[C@@H](CC(C)C)C(=O)N[C@@H](CO)C(=O)N[C@@H](CC(C)C)C(=O)N[C@@H](CC(=O)O)C(=O)N[C@H](C(=O)N1CCC[C@H]1C(=O)N[C@H](C(=O)N[C@@H](CCCCN)C(=O)N[C@@H](CC(C)C)C(=O)N[C@@H](CCCCNC(=O)COCCOCCNC(=O)COCCOCCNC(=O)CC[C@H](NC(=O)CCCCCCCCCCCCCCCCC(=O)O)C(=O)O)C(=O)N[C@@H](CCCCN)C(=O)NC(C)(C)C(=O)N[C@@H](CC(C)C)C(=O)N[C@@H](CC(C)C)C(=O)N[C@@H](CCC(=O)O)C(=O)N[C@@H](CCC(N)=O)C(=O)N[C@@H](CCC(=O)O)C(=O)N[C@@H](CCCNC(=N)N)C(=O)N[C@@H](CCC(N)=O)C(=O)N[C@@H](CCCCN)C(=O)N[C@@H](CCCCN)C(=O)N[C@@H](CCC(N)=O)C(=O)N[C@@H](CCCNC(=N)N)C(=O)N[C@@H](CCC(=O)O)C(=O)N[C@@H](CCC(N)=O)C(=O)N[C@@H](C)C(=O)N[C@@H](CCC(=O)O)C(=O)N[C@H](C(=O)N[C@@H](CC(N)=O)C(=O)NC(C)(C)C(=O)N[C@@H](CCC(N)=O)C(=O)N[C@H](C(=O)N[C@@H](CC(C)C)C(=O)N[C@@H](C)C(=O)N[C@@H](CCC(N)=O)C(=O)N[C@H](C(N)=O)C(C)C)[C@@H](C)CC)[C@@H](C)O)[C@@H](C)CC)C(C)C)C(C)C
Turning to B1, the EC50 [nM], 0% HSA is 3.15 nM.

B2: SEQ ID NO: 70 (peptide)
peptide: IVLSLDVPIKLK([AEEA-AEEA-γGlu-C18 diacid])QILLEQERQKKQREQAETN[Aib]QILAQV-NH2
modifications: N-terminus assumed
SMILES: CC[C@H](C)[C@H](N)C(=O)N[C@H](C(=O)N[C@@H](CC(C)C)C(=O)N[C@@H](CO)C(=O)N[C@@H](CC(C)C)C(=O)N[C@@H](CC(=O)O)C(=O)N[C@H](C(=O)N1CCC[C@H]1C(=O)N[C@H](C(=O)N[C@@H](CCCCN)C(=O)N[C@@H](CC(C)C)C(=O)N[C@@H](CCCCNC(=O)COCCOCCNC(=O)COCCOCCNC(=O)CC[C@H](NC(=O)CCCCCCCCCCCCCCCCC(=O)O)C(=O)O)C(=O)N[C@@H](CCC(N)=O)C(=O)N[C@H](C(=O)N[C@@H](CC(C)C)C(=O)N[C@@H](CC(C)C)C(=O)N[C@@H](CCC(=O)O)C(=O)N[C@@H](CCC(N)=O)C(=O)N[C@@H](CCC(=O)O)C(=O)N[C@@H](CCCNC(=N)N)C(=O)N[C@@H](CCC(N)=O)C(=O)N[C@@H](CCCCN)C(=O)N[C@@H](CCCCN)C(=O)N[C@@H](CCC(N)=O)C(=O)N[C@@H](CCCNC(=N)N)C(=O)N[C@@H](CCC(=O)O)C(=O)N[C@@H](CCC(N)=O)C(=O)N[C@@H](C)C(=O)N[C@@H](CCC(=O)O)C(=O)N[C@H](C(=O)N[C@@H](CC(N)=O)C(=O)NC(C)(C)C(=O)N[C@@H](CCC(N)=O)C(=O)N[C@H](C(=O)N[C@@H](CC(C)C)C(=O)N[C@@H](C)C(=O)N[C@@H](CCC(N)=O)C(=O)N[C@H](C(N)=O)C(C)C)[C@@H](C)CC)[C@@H](C)O)[C@@H](C)CC)[C@@H](C)CC)C(C)C)C(C)C
With B2, the EC50 [nM], 0% HSA amounted to 0.91 nM.

B3: SEQ ID NO: 69 (peptide)
peptide: IVLSLDVPIKLK([AEEA-AEEA-γGlu-C18 diacid])K[Aib]LLEQERQKKQREQAETNKQILAQV-NH2
modifications: N-terminus assumed
SMILES: CC[C@H](C)[C@H](N)C(=O)N[C@H](C(=O)N[C@@H](CC(C)C)C(=O)N[C@@H](CO)C(=O)N[C@@H](CC(C)C)C(=O)N[C@@H](CC(=O)O)C(=O)N[C@H](C(=O)N1CCC[C@H]1C(=O)N[C@H](C(=O)N[C@@H](CCCCN)C(=O)N[C@@H](CC(C)C)C(=O)N[C@@H](CCCCNC(=O)COCCOCCNC(=O)COCCOCCNC(=O)CC[C@H](NC(=O)CCCCCCCCCCCCCCCCC(=O)O)C(=O)O)C(=O)N[C@@H](CCCCN)C(=O)NC(C)(C)C(=O)N[C@@H](CC(C)C)C(=O)N[C@@H](CC(C)C)C(=O)N[C@@H](CCC(=O)O)C(=O)N[C@@H](CCC(N)=O)C(=O)N[C@@H](CCC(=O)O)C(=O)N[C@@H](CCCNC(=N)N)C(=O)N[C@@H](CCC(N)=O)C(=O)N[C@@H](CCCCN)C(=O)N[C@@H](CCCCN)C(=O)N[C@@H](CCC(N)=O)C(=O)N[C@@H](CCCNC(=N)N)C(=O)N[C@@H](CCC(=O)O)C(=O)N[C@@H](CCC(N)=O)C(=O)N[C@@H](C)C(=O)N[C@@H](CCC(=O)O)C(=O)N[C@H](C(=O)N[C@@H](CC(N)=O)C(=O)N[C@@H](CCCCN)C(=O)N[C@@H](CCC(N)=O)C(=O)N[C@H](C(=O)N[C@@H](CC(C)C)C(=O)N[C@@H](C)C(=O)N[C@@H](CCC(N)=O)C(=O)N[C@H](C(N)=O)C(C)C)[C@@H](C)CC)[C@@H](C)O)[C@@H](C)CC)C(C)C)C(C)C
The molecule B3 gave an EC50 [nM], 0% HSA of 0.61 nM.

B4: SEQ ID NO: 66 (peptide)
peptide: FTLSLDVPIGLKQILLKQQKQKKERQKAETNVQLLERV-NH2
modifications: not fully specified (residue 12); printed as FTLSLDVPIGLK*QILLKQQKQKKERQKAETNVQLLERV-NH2
B4: the EC50 [nM], 0% HSA is 25.4 nM.

B5: SEQ ID NO: 67 (peptide)
peptide: IVLSLDVPIKLK([AEEA-AEEA-γGlu-C18 diacid])QILLEQEKQKKQREQAETNKQILAQV-NH2
modifications: N-terminus assumed
SMILES: CC[C@H](C)[C@H](N)C(=O)N[C@H](C(=O)N[C@@H](CC(C)C)C(=O)N[C@@H](CO)C(=O)N[C@@H](CC(C)C)C(=O)N[C@@H](CC(=O)O)C(=O)N[C@H](C(=O)N1CCC[C@H]1C(=O)N[C@H](C(=O)N[C@@H](CCCCN)C(=O)N[C@@H](CC(C)C)C(=O)N[C@@H](CCCCNC(=O)COCCOCCNC(=O)COCCOCCNC(=O)CC[C@H](NC(=O)CCCCCCCCCCCCCCCCC(=O)O)C(=O)O)C(=O)N[C@@H](CCC(N)=O)C(=O)N[C@H](C(=O)N[C@@H](CC(C)C)C(=O)N[C@@H](CC(C)C)C(=O)N[C@@H](CCC(=O)O)C(=O)N[C@@H](CCC(N)=O)C(=O)N[C@@H](CCC(=O)O)C(=O)N[C@@H](CCCCN)C(=O)N[C@@H](CCC(N)=O)C(=O)N[C@@H](CCCCN)C(=O)N[C@@H](CCCCN)C(=O)N[C@@H](CCC(N)=O)C(=O)N[C@@H](CCCNC(=N)N)C(=O)N[C@@H](CCC(=O)O)C(=O)N[C@@H](CCC(N)=O)C(=O)N[C@@H](C)C(=O)N[C@@H](CCC(=O)O)C(=O)N[C@H](C(=O)N[C@@H](CC(N)=O)C(=O)N[C@@H](CCCCN)C(=O)N[C@@H](CCC(N)=O)C(=O)N[C@H](C(=O)N[C@@H](CC(C)C)C(=O)N[C@@H](C)C(=O)N[C@@H](CCC(N)=O)C(=O)N[C@H](C(N)=O)C(C)C)[C@@H](C)CC)[C@@H](C)O)[C@@H](C)CC)[C@@H](C)CC)C(C)C)C(C)C
On to B5, for which the EC50 [nM], 0% HSA came out at 0.57 nM.

B6: SEQ ID NO: 4 (peptide)
peptide: IVLSLDVPIGLK([γGlu-Palmitoyl])QKLLKQEKQEKEKQQAETNAKILAQV-NH2
modifications: N-terminus assumed
SMILES: CCCCCCCCCCCCCCCC(=O)N[C@@H](CCC(=O)NCCCC[C@H](NC(=O)[C@H](CC(C)C)NC(=O)CNC(=O)[C@@H](NC(=O)[C@@H]1CCCN1C(=O)[C@@H](NC(=O)[C@H](CC(=O)O)NC(=O)[C@H](CC(C)C)NC(=O)[C@H](CO)NC(=O)[C@H](CC(C)C)NC(=O)[C@@H](NC(=O)[C@@H](N)[C@@H](C)CC)C(C)C)C(C)C)[C@@H](C)CC)C(=O)N[C@@H](CCC(N)=O)C(=O)N[C@@H](CCCCN)C(=O)N[C@@H](CC(C)C)C(=O)N[C@@H](CC(C)C)C(=O)N[C@@H](CCCCN)C(=O)N[C@@H](CCC(N)=O)C(=O)N[C@@H](CCC(=O)O)C(=O)N[C@@H](CCCCN)C(=O)N[C@@H](CCC(N)=O)C(=O)N[C@@H](CCC(=O)O)C(=O)N[C@@H](CCCCN)C(=O)N[C@@H](CCC(=O)O)C(=O)N[C@@H](CCCCN)C(=O)N[C@@H](CCC(N)=O)C(=O)N[C@@H](CCC(N)=O)C(=O)N[C@@H](C)C(=O)N[C@@H](CCC(=O)O)C(=O)N[C@H](C(=O)N[C@@H](CC(N)=O)C(=O)N[C@@H](C)C(=O)N[C@@H](CCCCN)C(=O)N[C@H](C(=O)N[C@@H](CC(C)C)C(=O)N[C@@H](C)C(=O)N[C@@H](CCC(N)=O)C(=O)N[C@H](C(N)=O)C(C)C)[C@@H](C)CC)[C@@H](C)O)C(=O)O
The molecule B6 yielded an EC50 [nM], 0% HSA of 0.04 nM.

B7: SEQ ID NO: 68 (peptide)
peptide: IVLSLDVPIKLK([AEEA-AEEA-γGlu-C18 diacid])QILLEQERQKKQREQAETNKQILAQV-NH2
modifications: N-terminus assumed
SMILES: CC[C@H](C)[C@H](N)C(=O)N[C@H](C(=O)N[C@@H](CC(C)C)C(=O)N[C@@H](CO)C(=O)N[C@@H](CC(C)C)C(=O)N[C@@H](CC(=O)O)C(=O)N[C@H](C(=O)N1CCC[C@H]1C(=O)N[C@H](C(=O)N[C@@H](CCCCN)C(=O)N[C@@H](CC(C)C)C(=O)N[C@@H](CCCCNC(=O)COCCOCCNC(=O)COCCOCCNC(=O)CC[C@H](NC(=O)CCCCCCCCCCCCCCCCC(=O)O)C(=O)O)C(=O)N[C@@H](CCC(N)=O)C(=O)N[C@H](C(=O)N[C@@H](CC(C)C)C(=O)N[C@@H](CC(C)C)C(=O)N[C@@H](CCC(=O)O)C(=O)N[C@@H](CCC(N)=O)C(=O)N[C@@H](CCC(=O)O)C(=O)N[C@@H](CCCNC(=N)N)C(=O)N[C@@H](CCC(N)=O)C(=O)N[C@@H](CCCCN)C(=O)N[C@@H](CCCCN)C(=O)N[C@@H](CCC(N)=O)C(=O)N[C@@H](CCCNC(=N)N)C(=O)N[C@@H](CCC(=O)O)C(=O)N[C@@H](CCC(N)=O)C(=O)N[C@@H](C)C(=O)N[C@@H](CCC(=O)O)C(=O)N[C@H](C(=O)N[C@@H](CC(N)=O)C(=O)N[C@@H](CCCCN)C(=O)N[C@@H](CCC(N)=O)C(=O)N[C@H](C(=O)N[C@@H](CC(C)C)C(=O)N[C@@H](C)C(=O)N[C@@H](CCC(N)=O)C(=O)N[C@H](C(N)=O)C(C)C)[C@@H](C)CC)[C@@H](C)O)[C@@H](C)CC)[C@@H](C)CC)C(C)C)C(C)C
The molecule B7 showed an EC50 [nM], 0% HSA of 0.2 nM.
